Measured values as given in US12460006B2, “Antibodies against integrin alpha 11 beta 1” (Momenta Pharmaceuticals, Inc., priority 2019, dated 2025).
Numbering of substitutions follows the chain as printed. “Also recorded” adds a separate entry of the source.

T1: α11β1 expressed on the surface of CHO-K1 cells (Homo sapiens, UniProt Q9UKX5)
T1 construct: expressed in transfected cells; host or cells: CHO-K1
T1 sequence (Q9UKX5 23-1188): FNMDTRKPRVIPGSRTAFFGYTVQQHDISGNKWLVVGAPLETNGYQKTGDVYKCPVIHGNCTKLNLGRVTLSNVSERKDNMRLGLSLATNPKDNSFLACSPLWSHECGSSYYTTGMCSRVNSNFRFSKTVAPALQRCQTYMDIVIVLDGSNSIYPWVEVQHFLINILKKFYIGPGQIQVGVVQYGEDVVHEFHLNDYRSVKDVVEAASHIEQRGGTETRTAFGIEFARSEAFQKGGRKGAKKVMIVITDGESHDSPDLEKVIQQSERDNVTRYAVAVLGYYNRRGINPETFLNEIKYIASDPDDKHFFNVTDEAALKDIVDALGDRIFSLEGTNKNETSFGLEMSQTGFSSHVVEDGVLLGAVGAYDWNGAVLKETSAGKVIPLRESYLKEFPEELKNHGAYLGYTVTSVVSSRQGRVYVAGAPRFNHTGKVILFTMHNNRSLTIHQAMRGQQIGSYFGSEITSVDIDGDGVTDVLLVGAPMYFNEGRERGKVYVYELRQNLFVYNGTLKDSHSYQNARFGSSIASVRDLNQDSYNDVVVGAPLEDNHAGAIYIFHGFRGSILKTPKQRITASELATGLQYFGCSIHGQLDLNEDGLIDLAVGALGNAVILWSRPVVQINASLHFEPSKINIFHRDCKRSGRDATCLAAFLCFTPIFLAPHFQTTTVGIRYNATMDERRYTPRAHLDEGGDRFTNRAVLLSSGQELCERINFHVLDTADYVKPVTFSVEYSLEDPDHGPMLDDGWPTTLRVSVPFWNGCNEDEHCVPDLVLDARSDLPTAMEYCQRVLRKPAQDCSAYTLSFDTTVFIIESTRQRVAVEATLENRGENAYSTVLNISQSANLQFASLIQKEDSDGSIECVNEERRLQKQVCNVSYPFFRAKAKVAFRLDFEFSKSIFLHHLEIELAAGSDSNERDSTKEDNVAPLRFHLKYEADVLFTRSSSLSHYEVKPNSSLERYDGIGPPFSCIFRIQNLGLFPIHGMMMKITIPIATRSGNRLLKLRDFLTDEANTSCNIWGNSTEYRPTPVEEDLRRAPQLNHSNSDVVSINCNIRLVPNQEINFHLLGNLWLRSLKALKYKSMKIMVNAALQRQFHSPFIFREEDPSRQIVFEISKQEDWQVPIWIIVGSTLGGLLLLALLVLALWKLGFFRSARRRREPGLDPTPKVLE

B1: 9-G05: mouse anti-α11β1 mAb; VH SEQ ID NO: 103, VL SEQ ID NO: 104 (antibody, V domains shown)
VH: EVQLQQSGPELVKPGASVKIPCKASGYTFPDYNMDWVKQSHGKSLEWIGYINPDNGGTIYNQKFKGKATLTVDKSSSTAYMELRSLTSEDTAVYYCARLDSSGYGYYAMDYWGQGTSVTVSS
VL: DIVLTQSPASLAVSLGQRATISCRASESVDNYGISFMHWYQQKPGQPPKLLIYRASNLDSEIPARFSGSGSRTDFTLTIDPVETDDVATYYCQQSYKDPRTFGGGTKLEIK
B2: 8-P20: mouse anti-α11β1 mAb; VH SEQ ID NO: 105, VL SEQ ID NO: 106 (antibody, V domains shown)
VH: KVMLVESGGALVKPGGSLKLSCVASGFTFSNYAMSWVRQTPEKRLEWVATISSGGYYTYYPDSVKGRFTISRDNARNTLFLQMSSLRSEDTAMFYCAREDDYGRYSYTMDYWGQGTSVTVSS
VL: DVVMTQTPLSLPVSLGDQVSISCRCSQSLVHSNGNTYLHWYLQKPGQSPQLLIYKISNRFSGVPDRFSGSGSGTDFTLKISRVEAEDLGVYFCSQSTHVPYTFGGGTELEIK
B3: 8-J17: mouse anti-α11β1 mAb; VH SEQ ID NO: 113, VL SEQ ID NO: 114 (antibody, V domains shown)
VH: QVQLQQSGAELAKPGASVKMSCKASGYTFTNYWMHWVKQRPGQGLEWIGYINPNNGYTEYNQRFKDKATLTADRSSTTAYMQLSSLTSEDSAVYYCARSDIITTDYWGQGTTLTVSS
VL: B2 VL with V19A, C25S, H31Y, Q50K, I56V, Y101W, E108K
B4: 79E3E3: rat anti-α11β1 mAb; VH SEQ ID NO: 145, VL SEQ ID NO: 146 (antibody, V domains shown)
VH: MDWLWNLLFLMVVAQSAQAQIQLVQSGPEVKKPGESVKISCKASGYTFTDYAMNWVKQAPGNGLKWMGWINTQTGKPTYADDFKQRFVFSLETSARTTYLQINNLNIEDTATYFCTRLGTGNTKGFAYWGQGTLVTVSS
VL: MESQTHVLISLLLCVSGTCGDILINQSPASLTVSAGERVTMSCKSSQSLLYSENNQDYLAWYQQKPGQFPKLLIYGASNRHTGVPDRFTGSGSGTDFTLTISSVQAEDLADYYCEQTYRYPFTFGSGTKLEIK
B5: 9-E16: mouse anti-α11β1 mAb; VH SEQ ID NO: 111, VL SEQ ID NO: 112 (antibody, V domains shown)
VH: EVQLQQSGPELVKPGASVKISCKASGYTFTDYYMHWVKQKPGQGLEWIGEIYPGSGNPYYNEKFKGKATLTADKSSSSAYMQLSSLTSEDSAVYFCARTSYGRVGTGFAYWGQGTLVTVSA
VL: NFVMTQTPLSLPVSLGDQASISCRSSQSLLHSNGNTYLHWYLQKPGQSPKLLIYKVSNRFSGVPDRFSGSGSGTDFTLKINRVETEDLGIYFCSQSSHVPTFGAGTKLELK
B6: 8-I14: mouse anti-α11β1 mAb; VH SEQ ID NO: 109, VL SEQ ID NO: 110 (antibody, V domains shown)
VH: EVQLQQSGPELVKPGASVKKSCKASGYTFTDYYMHWVKQKPGQGLEWIGKIYPGSGNTHYNEKFKGKATLTADKSSSTAYMQLSSLTSEDSAVYFCATNYYGYRAMNYWGQGSSVTVSS
VL: DIHLTQSPSSLSASLGERISLTCRASQDIYISLNWFQQKPDGTIKLLIYGTSSLDSGVPKRFSGSRSGSDYSLTISSLESEDFADYYCLQYASSPYTFGGGTKLEIK
B7: 8H8E9: rat anti-α11β1 mAb; VH SEQ ID NO: 149, VL SEQ ID NO: 150 (antibody, V domains shown)
VH: MAVLVLLLCLVTFPSCALSQVQLKESGPGLVQPSQTLSLTCTVSGFSLTSNSVSWVRQAPGKGLEWMGAIWSGGSTDYNSALKSRLSISRDTSKSQVFLKMNSLQTEDTAIYFCTRSHWEPFDYWGQGVMVTVSS
VL: MESQTQALISLLLWVYGTCGDIVMTQSPFSLAVSEGEMVTINCKSSQGLLSSGNQKNYLAWYQQRPGQSPKLLIYYASTRQSGVPDRFIGGGSGTDFTLTISDVQAEDLADYYCLQHYSYPPTFGSGTKLEIK
B8: 6E5C11: rat anti-α11β1 mAb; VH SEQ ID NO: 151, VL SEQ ID NO: 152 (antibody, V domains shown)
VH: B7 VH with K24R, S54T, A59P, G73D, A81T, N102S
VL: B7 VL with F29L, M38T, I41M, G48S, L50F, R65K, G91S, A106T, S119N

Tested on: CHO-K1 cells expressing human α11
Test: Cell adhesion inhibition (xCelligence), type I collagen
Type: cell-based
Conditions: CHO-K1 hu α11 cells
Procedure: 0.6×10^6 cells/mL were incubated with each antibody at a range of concentrations for 20 minutes at 37° C. E-Plate VIEW 96 PET plate coated with 100 ng/mL type I collagen or PBS overnight at room temperature was blocked in 3% BSA for 1 house at room temperature. After washing the plate with PBS, cell and antibody mixture was added to the wells and the plate was places into an xCelligence machine. Cell adhesion was recorded over 6 hours. The time point of maximum cell adhesion was used for comparison relative to control.
A CHO-K1 hu α11 cell line was used to assess the ability of mAbs to block α11β1-mediated binding to type I collagen. […] In the “Untreated” condition, cells were plated on type I collagen but no antibody was added and in the “Uncoated” condition, cells were seeded onto BSA-coated wells containing no type I collagen. Statistics were performed using one-way ANOVA followed by Dunnett's multiple comparisons test. […] Therefore, it is possible that these mAbs bind on an α11β1 domain that keeps the integrin in a low or intermediate affinity state. […] Nine human mAbs were also tested for their ability to inhibit the binding of human CHO-α11 cells to type I collagen.

Molecule | inhibition of cell adhesion to type I collagen
B1 | significantly blocked cell adhesion; also recorded: decrease cell adhesion
B2 | did not block cell adhesion
B3 | did not block cell adhesion; also recorded: had effect on ligand binding
B4 | strongly inhibited cell adhesion
B5 | significantly blocked cell adhesion; also recorded: decrease cell adhesion

Same assay, conditions: Yes/No

Molecule | Inhibition of CHO-K1 adhesion to collagen
B1 | Yes
B2 | No
B3 | No
B4 | Yes
B6 | No
B5 | Yes
B7 | Yes
B8 | No

Biological target: human α11β1 (Homo sapiens, UniProt Q9UKX5)
Sequence (P05556 21-728 partner limits assumed, one chain of several): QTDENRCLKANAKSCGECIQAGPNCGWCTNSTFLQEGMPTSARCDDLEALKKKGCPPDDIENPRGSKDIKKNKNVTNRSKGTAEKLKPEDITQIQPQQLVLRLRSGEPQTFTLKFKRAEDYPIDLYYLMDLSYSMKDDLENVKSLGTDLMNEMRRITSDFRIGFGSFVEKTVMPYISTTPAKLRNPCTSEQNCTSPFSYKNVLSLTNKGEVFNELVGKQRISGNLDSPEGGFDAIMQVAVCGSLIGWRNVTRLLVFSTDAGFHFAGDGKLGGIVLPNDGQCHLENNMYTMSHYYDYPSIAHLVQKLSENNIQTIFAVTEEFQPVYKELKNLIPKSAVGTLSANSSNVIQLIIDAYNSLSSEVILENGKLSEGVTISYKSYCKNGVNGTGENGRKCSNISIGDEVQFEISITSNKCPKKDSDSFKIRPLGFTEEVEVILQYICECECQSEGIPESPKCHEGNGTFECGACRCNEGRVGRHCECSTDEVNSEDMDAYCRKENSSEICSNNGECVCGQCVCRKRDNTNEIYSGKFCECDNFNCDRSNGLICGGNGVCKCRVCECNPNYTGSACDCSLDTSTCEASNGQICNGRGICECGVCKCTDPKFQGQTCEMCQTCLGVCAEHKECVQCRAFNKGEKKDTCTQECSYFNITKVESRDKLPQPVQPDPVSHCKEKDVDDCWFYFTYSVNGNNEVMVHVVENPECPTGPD
Test: ELISA binding to recombinant human α11β1
Conditions: binding Yes/No
Procedure: 0.25 μg/mL of target antigen (recombinant human or mouse α11β1) was plated in a 96-well plate over night at 4° C. Plates were washed (PBS with 0.1% Tween-20), blocked (PBS with 2% BSA and 0.05% Tween-20) for 1 hour at room temperature and incubated with a range of antibody concentrations for 1 hour at room temperature. Subsequently, plates were washed and incubated with biotinylated anti-rabbit/mouse/human IgG in a 1:1000 dilution buffer and incubated for 1 hour at room temperature. After washing the plates, Streptavidin HRP was added at 1:200 in dilution buffer and incubated for 1 hour at room temperature. Ultra TMB ELISA substrate solution was added and the plates incubated for 5 minutes on a plate shaker. The reaction was stopped by adding stop solution to each well and plates were read at 450 nm.

Molecule | Human α11β1 ELISA
B1 | Yes
B2 | Yes
B3 | Yes
B4 | Yes
B6 | Yes
B5 | Yes
B7 | Yes
B8 | Yes

Biological target: T1, α11β1 expressed on the surface of CHO-K1 cells
Test: FACS antibody binding to CHO-K1 cells expressing human α11
Conditions: FACS
Procedure: 200,000 cells (wild-type CHO-K1 cells or CHO-K1 cells expressing human α11) were incubated with each antibody at desired concentrations in FACS buffer for 30 min at 4° C. Then, the cells were washed with FACS buffer and incubated with secondary antibody at 1:100 dilution for 30 minutes at 4° C. Cells were then washed and fixed with 1% PFA in PBS for 20 minutes at room temperature; washed again and read on a cytometer in FACS buffer.
Since integrins are large, transmembrane receptors that exist in different conformational shapes, experiments were performed to confirm that the novel antibodies also bound cell-expressed α11β1. A CHO-K1 cell line that endogenously expressed high levels of the β1 subunit was engineered to stably express human α11 (CHO-K1 hu α11).
Binding EC50 was estimated using data from Fluorescence-activated cell sorting (FACS) performed with CHO-K1 hu α11β1 cells.

Molecule | CHO-K1 binding EC50 (in words)
B1 | not as potent
B2 | low nanomolar range
B3 | low nanomolar range
B6 | low nanomolar range
B5 | not as potent

Same assay, conditions: binding Yes/No

Molecule | CHO-K1 FACS
B1 | Yes
B2 | Yes
B3 | Yes
B4 | Yes
B6 | Yes
B5 | Yes
B7 | Yes
B8 | Yes
